Results taken from patent publication US20020123056A1.

Biological target: PKB-sub peptide (GSK3 consensus peptide) …
Assay: cell-based or functional assay

kinase activity, 32P incorporation; GST-SGK2 from Hi5 cells treated with Calyculin A: 92500 CCPM1
kinase activity, 32P incorporation; GST-SGK2 from Hi5 cells treated with Microcysteine: 217 CCPM1
kinase activity, 32P incorporation; GST-SGK2 from Hi5 cells treated with Okadaic Acid: 132000 CCPM1
kinase activity, 32P incorporation; GST-SGK2 from untreated Hi5 cells: 979 CCPM1
Substance: GST-SGK2 fusion protein (human SGK2 with N-terminal Glutathione S-transferase tag, expressed in Hi5 insect cells) (from UniProt Q9HBY8 1-367) (enzyme)
